B1: KRT18 (parent)
chain: RAQYDELARKNREELDKYWSQQIE
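Note: lentivirally expressed fusions sorted by FACS into six bins by GFP to DsRed ratio, PSI derived from sequencing read proportions per bin multiplied by bin number.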

Variants of B1 are the subject of the data set. The data set is described as follows: protein stability index of a GFP-peptide fusion (GPS, HEK-293T) (PSI 1-6); higher = more stable. To be noted: c terminus: a fixed tail appended.
In the case of RAQYKELARKNREELDKYWSQQIE [D5K], the protein stability index amounted to 2.84.
As for RAQYLELARKNREELDKYWSQQIE [D5L], the figure is 2.33; as for RAQYRELARKNREELDKYWSQQIE [D5R], 2.79.
As for RAQYHELARKNREELDKYWSQQIE [D5H], the figure is 3.29; as for RAQYCELARKNREELDKYWSQQIE [D5C], 3.33.
For the variant RAQYMELARKNREELDKYWSQQIE [D5M], the protein stability index is 2.75.
As to RAQYQELARKNREELDKYWSQQIE [D5Q], the protein stability index was 3.38.
As for RAQYEELARKNREELDKYWSQQIE [D5E], the figure is 2.86; as for RAQYAELARKNREELDKYWSQQIE [D5A], 2.74.
Regarding RAQYIELARKNREELDKYWSQQIE [D5I], the protein stability index was 2.98.
As for RAQYVELARKNREELDKYWSQQIE [D5V], the figure is 3.57.
As for RAQYTELARKNREELDKYWSQQIE [D5T], the figure is 3.57; as for RAQYGELARKNREELDKYWSQQIE [D5G], 3.09; as for RAQYYELARKNREELDKYWSQQIE [D5Y], 3.28.
As for RAQYFELARKNREELDKYWSQQIE [D5F], the figure is 2.83.
Consider RAQYNELARKNREELDKYWSQQIE [D5N], for which the protein stability index turned out to be 3.17.
With RAQYSELARKNREELDKYWSQQIE [D5S] the figure was 2.79.
As for RAQYPELARKNREELDKYWSQQIE [D5P], the figure is 3.73; as for RAQYDWLARKNREELDKYWSQQIE [E6W], 2.42.
Turning to RAQYDMLARKNREELDKYWSQQIE [E6M], the protein stability index amounted to 2.99.
As to RAQYDFLARKNREELDKYWSQQIE [E6F], the protein stability index is 3.15.
As for RAQYDVLARKNREELDKYWSQQIE [E6V], the figure is 3.32.
With RAQYDCLARKNREELDKYWSQQIE [E6C], the protein stability index came out at 2.3.
As for RAQYDDLARKNREELDKYWSQQIE [E6D], the figure is 3.27; as for RAQYDQLARKNREELDKYWSQQIE [E6Q], 3.51.
With RAQYDTLARKNREELDKYWSQQIE [E6T] the figure was 3.36; with RAQYDILARKNREELDKYWSQQIE [E6I], 3.05.
As for RAQYDNLARKNREELDKYWSQQIE [E6N], the figure is 3.66; as for RAQYDGLARKNREELDKYWSQQIE [E6G], 3.02.
For RAQYDLLARKNREELDKYWSQQIE [E6L], the protein stability index stood at 2.85.
Turning to RAQYDRLARKNREELDKYWSQQIE [E6R], the protein stability index came out at 3.17.
As for RAQYDPLARKNREELDKYWSQQIE [E6P], the figure is 4.07.
As for RAQYDALARKNREELDKYWSQQIE [E6A], the figure is 3.3.
As for RAQYDYLARKNREELDKYWSQQIE [E6Y], the figure is 3.25; as for RAQYDKLARKNREELDKYWSQQIE [E6K], 3.48; as for RAQYDHLARKNREELDKYWSQQIE [E6H], 3.41.
As to RAQYDSLARKNREELDKYWSQQIE [E6S], the protein stability index was 3.24.
As for RAVYDELARKNREELDKYWSQQIE [Q3V], the figure is 2.31.
With RAYYDELARKNREELDKYWSQQIE [Q3Y] the figure was 2.56; with RATYDELARKNREELDKYWSQQIE [Q3T], 2.89.
With RAWYDELARKNREELDKYWSQQIE [Q3W] the figure was 2.07.
Consider RAQYDELMRKNREELDKYWSQQIE [A8M], for which the protein stability index turned out to be 2.66.
For RAQYDELKRKNREELDKYWSQQIE [A8K], the protein stability index came out at 3.85.
As for RAQYDELDRKNREELDKYWSQQIE [A8D], the figure is 4.2; as for RAQYDELLRKNREELDKYWSQQIE [A8L], 2.34; as for RAQYDELIRKNREELDKYWSQQIE [A8I], 3.17.
As for RAQYDELHRKNREELDKYWSQQIE [A8H], the protein stability index is 2.17.
For the variant RAQYDELERKNREELDKYWSQQIE [A8E], the protein stability index was 4.57.
With RAQYDELQRKNREELDKYWSQQIE [A8Q] the figure was 3.75.
As for RAQYDELNRKNREELDKYWSQQIE [A8N], the protein stability index was 3.54.
As for RAQYDELRRKNREELDKYWSQQIE [A8R], the figure is 3.51.
With RAQYDELPRKNREELDKYWSQQIE [A8P] the figure was 4.42.
With RAQYDELGRKNREELDKYWSQQIE [A8G] the figure was 3.72; with RAQYDELCRKNREELDKYWSQQIE [A8C], 2.75; with RAQYDELSRKNREELDKYWSQQIE [A8S], 3.5.
Regarding RAQYDELFRKNREELDKYWSQQIE [A8F], the protein stability index came to 3.41.
Consider RAQYDEQARKNREELDKYWSQQIE [L7Q], for which the protein stability index worked out at 3.78.
Consider RAQYDEGARKNREELDKYWSQQIE [L7G], for which the protein stability index is 3.19.
As for RAQYDEMARKNREELDKYWSQQIE [L7M], the figure is 2.38; as for RAQYDETARKNREELDKYWSQQIE [L7T], 3.68.
With RAQYDEWARKNREELDKYWSQQIE [L7W] the figure was 2.13; with RAQYDEVARKNREELDKYWSQQIE [L7V], 3.41.
With RAQYDEDARKNREELDKYWSQQIE [L7D] the figure was 3; with RAQYDESARKNREELDKYWSQQIE [L7S], 3.84; with RAQYDEHARKNREELDKYWSQQIE [L7H], 3.62.
RAQYDEKARKNREELDKYWSQQIE [L7K]: the protein stability index amounted to 3.93.
For RAQYDEYARKNREELDKYWSQQIE [L7Y], the protein stability index amounted to 3.06.
With RAQYDECARKNREELDKYWSQQIE [L7C] the figure was 3.42; with RAQYDEFARKNREELDKYWSQQIE [L7F], 1.27; with RAQYDEEARKNREELDKYWSQQIE [L7E], 2.75.
As for RAQYDERARKNREELDKYWSQQIE [L7R], the figure is 3.89; as for RAQYDEAARKNREELDKYWSQQIE [L7A], 3.7; as for RAQYDEPARKNREELDKYWSQQIE [L7P], 4.08.
Take RAQYDEIARKNREELDKYWSQQIE [L7I]: the protein stability index was determined as 3.41.
With RAQYDENARKNREELDKYWSQQIE [L7N] the figure was 4.22; with RAQTDELARKNREELDKYWSQQIE [Y4T], 3.91.
As for RAQLDELARKNREELDKYWSQQIE [Y4L], the figure is 2.25; as for RAQGDELARKNREELDKYWSQQIE [Y4G], 3.04; as for RAQQDELARKNREELDKYWSQQIE [Y4Q], 3.93.
With RAQMDELARKNREELDKYWSQQIE [Y4M] the figure was 3.18.
Regarding RAQVDELARKNREELDKYWSQQIE [Y4V], the protein stability index is 4.
As for RAQDDELARKNREELDKYWSQQIE [Y4D], the figure is 3.23.
As for RAQEDELARKNREELDKYWSQQIE [Y4E], the figure is 3.57; as for RAQADELARKNREELDKYWSQQIE [Y4A], 3.84; as for RAQNDELARKNREELDKYWSQQIE [Y4N], 3.68.
As for RAQWDELARKNREELDKYWSQQIE [Y4W], the figure is 2.48; as for RAQSDELARKNREELDKYWSQQIE [Y4S], 3.74; as for RAQIDELARKNREELDKYWSQQIE [Y4I], 3.47.
Turning to RAQCDELARKNREELDKYWSQQIE [Y4C], the protein stability index is 3.44.
With RAQPDELARKNREELDKYWSQQIE [Y4P] the figure was 3.67; with RAQRDELARKNREELDKYWSQQIE [Y4R], 4.
In the case of RAQHDELARKNREELDKYWSQQIE [Y4H], the protein stability index came to 3.45.
As for RAQFDELARKNREELDKYWSQQIE [Y4F], the figure is 3.52; as for RAQKDELARKNREELDKYWSQQIE [Y4K], 3.46.

The record behind these values is the supplement of paper PMC10567573.
